Target: human Siglec-15, full length, expressed on cells (human) (UniProt Q6ZMC9)
Assay: flow cytometry, THP-1 cells overexpressing human Siglec-15, ADC titrated, anti-human IgG-PE, gMFI

Sequence of human Siglec-15, full length, expressed on cells (human) (Q6ZMC9 20-328 limits assumed): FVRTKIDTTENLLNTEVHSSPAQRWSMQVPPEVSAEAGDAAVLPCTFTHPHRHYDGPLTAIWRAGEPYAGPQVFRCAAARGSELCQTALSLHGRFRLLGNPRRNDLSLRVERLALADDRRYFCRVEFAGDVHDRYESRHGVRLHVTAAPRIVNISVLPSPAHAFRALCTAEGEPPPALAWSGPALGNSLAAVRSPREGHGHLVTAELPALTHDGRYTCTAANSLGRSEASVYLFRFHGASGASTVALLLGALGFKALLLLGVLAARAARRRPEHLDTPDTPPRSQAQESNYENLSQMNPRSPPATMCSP

EC50 (read off the curve): 3 nM
B1: ZLA-1243-E01-Exatecan (protein)
VH: QVQLVQSGGGLVQPGRSLRLSCAASGFTFDDYAMHWVRQAPGKGLEWVSGISWNSGSIGYADSVKGRFTISRDNAKNSLYLQMNSLRAEDTALYYCAKGLWPSYDLDAFDIWGQGTMVTVSS
VL: QSALTQPASVSGSPGQSITLSCTGTSSDVGAYNFVSWYQQHPGTAPKLMIYEVSNRPSGVSDRFSGSKSGNTASLTISGLQAEDEADYYCSSYTSTIPPFVFGTGTKVTVL
modifications: Antibody-drug conjugate: exatecan payload joined through an MC-GGFG linker. The attachment residues are not stated and the letters cannot carry the payload.
